Laboratory results: US20250152742A1, “COMPOSITIONS AND METHODS FOR NEUROLOGICAL DISEASES” (Trames Bio, Inc., priority 2022, published 2025)

System: engineered chimeric receptor SEQ ID NO: 33 and its mutants (human α7-nAChR ligand binding domain / human GlyRα1 ion pore domain) in Lenti-X 293T cells
Test: YFP fluorescence quenching anion reporter plate reader assay (percent quench, EC50)
Type: cell-based
Details: for YFP fluorescence quenching using CNL001 (percent quench): receptor named in row; for YFP fluorescence quenching using Varenicline, 3 nM var: ligand Varenicline 3 nM; for YFP fluorescence quenching using Varenicline, 30 nM var: ligand Varenicline 30 nM; for YFP fluorescence quenching using Varenicline, 300 nM var: ligand Varenicline 300 nM; for YFP fluorescence quenching using Varenicline, 500 nM var: ligand Varenicline 500 nM; for YFP fluorescence quenching using Varenicline, 1 uM var: ligand Varenicline 1 uM
Method in brief: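 Lenti-X 293T cells co-expressing an anion-quenchable YFP were transiently transfected with receptor DNA, then ligand was added in NaI-substituted buffer (pH 7.2) after 30 min at 37 °C. Fluorescence was read about 2 min; percent quench = mean of last 10 s over 15 s pre-ligand baseline.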

B1: CODA334: engineered receptor: L131Q in SEQ ID NO: 33 (protein)
chain: MRCSPGGVWLALAASLLHVSLQGEFQRKLYKELVKNYNPLERPVANDSQPLTVYFSLSLLQIMDVDEKNQVLTTNIWLQMSWTDHYLQWNVSEYPGVKTVRFPDGQIWKPDILLYNSADERFDATFHTNVQVNSSGHCQYLPPGIFKSSCPMDLKNFPMDVQTCKLKFGSWSYGGWSLDLQMQEADISGYIPNGEWDLVGIPGKRSERFYECCKEPYPDVTFTVTMRRRMGYYLIQMYIPSLLIVILSWISFWINMDAAPARVGLGITTVLTMTTQSSGSRASLPKVSYVKAIDIWMAVCLLFVFSALLEYAAVNFVSRQHKELLRFRRKRRHHKSPMLNLFQEDEAGEGRFNFSAYGMGPACLQAKDGISVKGANNSNTTNPPPAPSKSPEEMRKLFIQRAKKIDKISRIGFPMAFLIFNMFYWIIYKIVRREDVHNQ
modifications: synthetic sequence of chimeric LGIC
Question: Which results are given for B1?
Answer: YFP fluorescence quenching using CNL001 (percent quench) (1 nM CNL001, first column so headed): 76.165%; YFP fluorescence quenching using CNL001 (percent quench) (1 nM CNL001, second column so headed): 78.463%; YFP fluorescence quenching using TC-5619/Bradanicline (percent quench) (3 nM brd (TC-5619/Bradanicline)): 41.92%; YFP fluorescence quenching using CNL001 (percent quench) (10 nM CNL001, first column so headed): 79.349%; YFP fluorescence quenching using CNL001 (percent quench) (10 nM CNL001, second column so headed): 78.238%; YFP fluorescence quenching using TC-6683 (percent quench) (30 nM TC-6683): −17.99%; YFP fluorescence quenching using TC-5619/Bradanicline (percent quench) (30 nM brd (TC-5619/Bradanicline)): 63.65%; YFP fluorescence quenching using CNL001 (percent quench) (50 nM CNL001, first column so headed): 80.221%; YFP fluorescence quenching using CNL001 (percent quench) (50 nM CNL001, second column so headed): 81.789%; YFP fluorescence quenching using ABT-126 (percent quench) (50 nM abt (ABT-126)): 23.65%; YFP fluorescence quenching using CNL001 (percent quench) (100 nM CNL001, first column so headed): 82%; YFP fluorescence quenching using CNL001 (percent quench) (100 nM CNL001, second column so headed): 80.766%; YFP fluorescence quenching (percent quench) (100 nM CNL002): 49.9%; YFP fluorescence quenching using ABT-126 (percent quench) (100 nM abt (ABT-126)): 61.83%; YFP fluorescence quenching using AZD-0328 (percent quench) (100 nM azd0328): 80.55%; YFP fluorescence quenching using TC-6683 (percent quench) (300 nM TC-6683): −23.26%; YFP fluorescence quenching using ABT-126 (percent quench) (300 nM abt (ABT-126)): 76.44%; YFP fluorescence quenching using AZD-0328 (percent quench) (300 nM azd0328): 83.15%; YFP fluorescence quenching using TC-5619/Bradanicline (percent quench) (300 nM brd (TC-5619/Bradanicline)): 64.85%; YFP fluorescence quenching using CNL001 (percent quench) (1 uM CNL001, first column so headed): 81.707%; YFP fluorescence quenching using CNL001 (percent quench) (1 uM CNL001, second column so headed): 82.665%; YFP fluorescence quenching (percent quench) (1 uM CNL002): 80.72%; YFP fluorescence quenching using ABT-126 (percent quench) (1 uM abt (ABT-126)): 77.68%; YFP fluorescence quenching using TC-6683 (percent quench) (3 uM TC-6683): −18.84%; YFP fluorescence quenching (percent quench) (10 uM ach (acetylcholine)): −2.63%; YFP fluorescence quenching (percent quench) (30 uM CNL002): 80.97%; YFP fluorescence quenching using TC-6683 (percent quench) (30 uM TC-6683): −16.92%; YFP fluorescence quenching (percent quench) (30 uM ach (acetylcholine)): 30.06%; YFP fluorescence quenching using AZD-0328 (percent quench) (30 uM azd0328): 82.53%; YFP fluorescence quenching using TC-6683 (percent quench) (100 uM TC-6683): −15.59%; YFP fluorescence quenching (percent quench) (100 uM ach (acetylcholine)): 71.27%; YFP fluorescence quenching (percent quench) (1 mM ach (acetylcholine)): 79.66%; YFP fluorescence quenching (percent quench) (3 mM ach (acetylcholine)): 74.9%; YFP fluorescence quenching using Facinicline, 30 nM fac (ligand Facinicline 30 nM): 83.07; YFP fluorescence quenching using Facinicline, 100 nM fac (ligand Facinicline 100 nM): 85.36; YFP fluorescence quenching using Facinicline, 300 nM fac (ligand Facinicline 300 nM): 84.19; YFP fluorescence quenching using Facinicline, 30 uM fac (ligand Facinicline 30 uM): 82.75; YFP fluorescence quenching using TC-6987, 1 uM tc6987 (ligand TC-6987 1 uM): 74.1; YFP fluorescence quenching using TC-6987, 10 uM tc6987 (ligand TC-6987 10 uM): 81.7; YFP fluorescence quenching using TC-6987, 500 uM tc6987 (ligand TC-6987 500 uM): 80.18; YFP fluorescence quenching using Varenicline, 3 nM var (first column): −5.192; YFP fluorescence quenching using Varenicline, 3 nM var (second column): −4.327; YFP fluorescence quenching using Varenicline, 30 nM var (first column): −0.688; YFP fluorescence quenching using Varenicline, 30 nM var (second column): 0.672; YFP fluorescence quenching using Varenicline, 300 nM var (first column): 75.189; YFP fluorescence quenching using Varenicline, 300 nM var (second column): 74.923; YFP fluorescence quenching using Varenicline, 500 nM var (first column): 79.048; YFP fluorescence quenching using Varenicline, 500 nM var (second column): 80.337; YFP fluorescence quenching using Varenicline, 1 uM var (first column): 79.766; YFP fluorescence quenching using Varenicline, 1 uM var (second column): 76.836
